Entries after “also recorded” stand apart in the source; their conditions may differ. Like-named read-outs stand apart in the source and are kept apart here.
Experiments:
[1] = target: fibronectin (Homo sapiens, UniProt P02751); settings: Note 1, cited from earlier work
[2] = target: collagen (agarose cross-linked to collagen, Sigma); test: pulldown on collagen-agarose beads, anti-mouse IL-2 immunoblot, band quantified with iBright
[3] = target: collagen (agarose cross-linked to collagen, Sigma); test: pulldown on collagen-agarose beads, anti-mouse IL-2 immunoblot, bound fraction normalized to Construct B
[4] = test system: HEK-Blue™ IL-2 cells; test: HEK-Blue IL2 reporter assay (SEAP, OD630); assay type: cell-based; settings: Table 5C
Procedure: Recombinant MMP9 and/or MMP2 (R&D Systems) was first activated with p-aminophenylmercuric acetate and this activated protease or equivalent amount of activating solution without the protease was used to digest or mock digest the fusion protein for 1 hr, 2 hr, 4 hr and overnight (18-22 hr) at 37 C. Cleavage assays are set up in TCNB buffer: 50 mM Tris, 10 mM CaCl2), 150 mM NaCl, 0.05% Brij-35 (w/v), pH 7.5. Digested protein was aliquoted and stored at −80° C. prior to testing. Aliquots of digests were subsequently analyzed by SDS-PAGE followed by Western blotting to evaluate the extent of cleavage. Digests were also assessed in functional assays such as CTLL-2 proliferation and HEK-Blue Interleukin reporter assays. As shown in FIGS. 2A-E, essentially complete cleavage by MMP9 protease of the fusion proteins with functional site is seen after overnight incubation. In contrast, proteins containing a scrambled MMP cleavage site are not cut (FIG. 2E). HEK-Blue™ IL-2 cells are specifically designed to monitor the activation of the JAK-STAT pathway induced by IL-2. Indeed, stimulation with human or murine IL-2 triggers the JAK/STAT5 pathway and induces secreted embryonic alkaline phosphatase (SEAP) production. SEAP can be readily monitored when using QUANTI-Blue™, a SEAP detection medium. These cells respond to human and murine IL-2. For the HEK Blue assay, untreated and digested samples are titrated and added to 50 000 HEK Blue cells per well in 200 ul medium in a 96-well plate and incubated at 37C in 5% CO2 for 20-24 hr. The following day, levels of SEAP are measured by adding 20 uL of cell supernatant to QuantiBlue reagent, followed by 1-3 h incubation at 37C and reading absorbance at 630 nm. FIGS. 3C-J, 3Q-Y and Table 5B-5C show results obtained from IL2 fusion proteins tested in HEK Blue IL2 assay.

[5] = target: heparin; test: IL-2 fusion protein plate binding assay to Heparin-BSA conjugate
Procedure: 96-well plates were coated with 25 ug/mL of Heparin-BSA conjugate (provided by Dr. Mueller, Boerhinger Ingelheim) or control BSA for 18-22 h at room temperature on shaker (350 rpm). After washing, wells are blocked with PBS-0.05% Tween 20/1% BSA for 90 min, then fusion proteins are titrated in 1% BSA/PBS-0.05% Tween 20 pH 7.5 and/or pH 6 and added for 2 hr at room temperature with shaking. After washing, an anti-mouse IL-2 biotin-labelled detection antibody (JES6-5H4, ThermoFisher) is added and binding is detected using Ultra Strepavidin HIRP (ThermoFisher). The plate was developed by adding the chromogenic tetramethylbenzidine substrate (Ultra TMB, ThermoFisher). The reaction is stopped by addition of 0.5M H2SO4 and the absorbance is read at 450-650 nm.

[6] = Drug and IL-2 levels in B16F10 tumor lysates by ELISA; assay type: in vivo, mice
Procedure: (§1) We developed an ELISA assay to detect and quantify fusion proteins comprising IL-2 and IL-2Rα moieties. Wells of a 96-well plate are coated overnight with 100 uL of a rat anti-mouse IL-2 monoclonal antibody (JES6-1A12; ThermoFisher) at […] in PBS. After washing, wells are blocked with TBS/0.05% Tween 20/1% BSA, then fusion proteins and/or unknown biological samples are added for 1 hr at room temperature. After washing, an anti-mouse IL-2Rα biotin-labelled detection antibody (BAF2438, R&D systems) is added and binding is detected using Ultra Strepavidin HRP (ThermoFisher). The ELISA plate was developed by adding the chromogenic tetramethylbenzidine substrate (Ultra TMB, ThermoFisher). The reaction is stopped by addition of 0.5M H2SO4 and the absorbance is read at 450-650 nm.
We developed a second ELISA assay to detect and quantify mouse IL-2 and/or fusion proteins comprising an IL-2 moiety. Wells of a 96-well plate are coated overnight with 100 uL of a rat anti-mouse IL-2 monoclonal antibody (JES6-1A12; ThermoFisher) at […] in PBS. After washing, wells are blocked with TBS/0.05% Tween 20/1% BSA, then fusion proteins and/or unknown biological samples are added for 1 hr at room temperature. After washing, an anti-mouse IL-2 biotin-labelled detection antibody (JES6-5H4, ThermoFisher) is added and binding is detected using Ultra Strepavidin HRP (ThermoFisher). The ELISA plate was developed by adding the chromogenic tetramethylbenzidine substrate (Ultra TMB, ThermoFisher). The reaction is stopped by addition of 0.5M H2SO4 and the absorbance is read at 450-650 nm. This assay is able to simultaneously detect both free mouse IL-2 as well as mouse IL-2 in the context of pro-drug fusion proteins.
We quantified levels of full-length IL2-IL2Ra fusion proteins and IL-2 in tumor samples collected during pre-clinical efficacy studies comparing Construct B and retention linker IL-2 fusion drugs (see example 17).
Tumors (n=3 per group) were collected 24 h after the last dose injection, flash frozen and stored at −80C until further processing. Tumor lysates were generated using tissue extraction reagent (ThermoFisher) supplemented with protease and phosphatase inhibitors and standard techniques and protein concentrations were determined using the BCA assay (Pierce).
Lysates were tested with in-house ELISAs to measure full-length IL-2 fusion proteins (IL-2 capture/IL-2Rα detection) and IL-2 fusion proteins+free IL-2 (IL-2 capture/IL-2 detection). Free IL-2 levels in tumor were calculated by subtracting drug levels from the drug+IL-2 data set. Results were normalized to 1 mg of tumor lysate and mean values are shown in FIG. 15C-H. Levels of Construct CC (20 mg/kg dose) in tumor are roughly 3-fold higher compared to Construct B levels, despite Construct B being dosed at 40 mg/kg (FIG. C). […] Likewise, IL-2 levels in Construct CC, Construct GG and Construct II treated tumors are elevated compared to Construct B treated tumors (FIG. 15E/H). This implies that next generation retention linker technology is able to retain in TME both full-length drug and released IL-2 post-cleavage.

[7] = Full-length drug levels in serum by ELISA; assay type: in vivo, mice; settings: Construct CC 20 mg/kg; 24 hrs after dosing
Procedure: as §1
Additional serum samples collected at Day 17 (Construct B 20 mg/kg) and Day 21 (Construct Y 20 mg/kg), 4 days and 8 days respectively after the last IV injection, were assayed for full-length IL-2 fusion drug.

[8] = pH-sensitive sequences derived from thrombospondin

Chain of fibronectin (P02751 32-2477, species assumed): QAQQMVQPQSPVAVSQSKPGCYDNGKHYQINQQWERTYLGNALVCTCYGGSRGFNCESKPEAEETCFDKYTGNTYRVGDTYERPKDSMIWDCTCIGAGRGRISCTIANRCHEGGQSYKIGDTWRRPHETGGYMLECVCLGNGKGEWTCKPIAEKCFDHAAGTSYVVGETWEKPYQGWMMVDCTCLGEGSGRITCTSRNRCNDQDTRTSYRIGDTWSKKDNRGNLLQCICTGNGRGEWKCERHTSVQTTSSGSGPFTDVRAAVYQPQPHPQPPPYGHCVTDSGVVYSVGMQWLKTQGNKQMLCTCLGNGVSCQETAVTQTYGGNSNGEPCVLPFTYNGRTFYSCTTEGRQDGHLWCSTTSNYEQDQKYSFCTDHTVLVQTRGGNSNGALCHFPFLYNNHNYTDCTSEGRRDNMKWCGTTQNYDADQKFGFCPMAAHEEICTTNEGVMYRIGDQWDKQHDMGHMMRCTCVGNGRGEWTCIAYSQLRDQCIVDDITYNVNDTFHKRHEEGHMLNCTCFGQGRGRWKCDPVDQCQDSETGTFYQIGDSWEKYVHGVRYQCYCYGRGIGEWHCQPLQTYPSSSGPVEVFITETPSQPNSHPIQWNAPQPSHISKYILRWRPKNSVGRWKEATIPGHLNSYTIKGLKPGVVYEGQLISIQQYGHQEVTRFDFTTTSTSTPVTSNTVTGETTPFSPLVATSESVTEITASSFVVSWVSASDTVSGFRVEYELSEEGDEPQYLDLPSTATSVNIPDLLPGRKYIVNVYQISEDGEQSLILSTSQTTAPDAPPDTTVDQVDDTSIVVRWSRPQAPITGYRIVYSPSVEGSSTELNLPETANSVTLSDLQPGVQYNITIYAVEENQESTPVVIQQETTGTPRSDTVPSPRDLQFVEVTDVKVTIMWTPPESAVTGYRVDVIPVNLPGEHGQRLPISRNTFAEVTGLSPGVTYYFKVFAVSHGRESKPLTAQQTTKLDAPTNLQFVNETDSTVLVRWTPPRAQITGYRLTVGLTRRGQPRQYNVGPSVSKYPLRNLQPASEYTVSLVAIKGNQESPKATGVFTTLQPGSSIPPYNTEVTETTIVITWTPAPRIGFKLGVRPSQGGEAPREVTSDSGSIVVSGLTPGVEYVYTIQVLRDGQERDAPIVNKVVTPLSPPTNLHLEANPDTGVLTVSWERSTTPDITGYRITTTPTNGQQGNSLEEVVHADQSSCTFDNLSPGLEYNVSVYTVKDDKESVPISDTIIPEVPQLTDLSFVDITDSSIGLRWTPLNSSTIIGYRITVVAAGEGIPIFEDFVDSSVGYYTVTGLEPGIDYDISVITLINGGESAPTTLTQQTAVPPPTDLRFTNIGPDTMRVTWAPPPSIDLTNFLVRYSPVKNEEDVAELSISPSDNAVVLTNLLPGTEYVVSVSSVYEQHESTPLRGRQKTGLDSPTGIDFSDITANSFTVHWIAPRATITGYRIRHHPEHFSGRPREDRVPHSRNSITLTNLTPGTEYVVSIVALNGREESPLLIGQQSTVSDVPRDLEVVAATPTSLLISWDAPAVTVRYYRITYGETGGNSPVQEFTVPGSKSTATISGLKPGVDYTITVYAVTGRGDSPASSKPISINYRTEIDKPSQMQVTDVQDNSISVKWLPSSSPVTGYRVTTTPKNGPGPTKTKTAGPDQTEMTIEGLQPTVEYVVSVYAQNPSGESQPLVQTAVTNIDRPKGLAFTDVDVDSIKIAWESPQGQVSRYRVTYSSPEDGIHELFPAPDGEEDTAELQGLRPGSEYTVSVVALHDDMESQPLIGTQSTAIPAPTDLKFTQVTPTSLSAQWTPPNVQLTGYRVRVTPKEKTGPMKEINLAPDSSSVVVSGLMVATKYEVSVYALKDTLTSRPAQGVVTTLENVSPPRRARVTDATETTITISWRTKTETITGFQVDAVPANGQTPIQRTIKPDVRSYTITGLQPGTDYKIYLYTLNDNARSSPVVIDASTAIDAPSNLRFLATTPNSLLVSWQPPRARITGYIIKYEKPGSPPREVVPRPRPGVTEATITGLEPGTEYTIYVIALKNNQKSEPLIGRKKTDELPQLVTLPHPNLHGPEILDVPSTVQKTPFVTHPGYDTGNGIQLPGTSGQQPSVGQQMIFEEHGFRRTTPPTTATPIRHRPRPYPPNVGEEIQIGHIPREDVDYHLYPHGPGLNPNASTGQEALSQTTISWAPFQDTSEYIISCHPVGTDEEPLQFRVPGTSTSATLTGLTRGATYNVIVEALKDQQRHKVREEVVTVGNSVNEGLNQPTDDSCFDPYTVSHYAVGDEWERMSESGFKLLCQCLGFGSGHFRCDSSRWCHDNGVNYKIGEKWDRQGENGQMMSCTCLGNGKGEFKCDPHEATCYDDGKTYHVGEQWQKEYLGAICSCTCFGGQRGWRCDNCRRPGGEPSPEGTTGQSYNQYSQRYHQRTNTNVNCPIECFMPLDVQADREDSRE

For 656 (GGWSHWSPWSS) [Construct 656], the “affinity (Binds to Fibronectin)” value [1, 8] is given as “derived from thrombospondin (medium affinity)”.

In the case of 654 (KRFKQDGGWSHWSPWSS) [Construct 654], the “affinity (Binds to Fibronectin)” value [1, 8] is listed as “derived from thrombospondin (low affinity)”.

For 680 (QFGGHNSVDFEEDT) [Construct 680], the “affinity (Binds to Fibronectin)” value ([1]; FAB D3 fragments) is given as “non-binding control”.

For 655 (KRFKQDGGWSHWSP) [Construct 655], the “affinity (Binds to Fibronectin)” value [1, 8] is listed as “derived from thrombospondin (medium affinity)”.

B1: Construct B (Fc fusion)
chain: APTSSSTSSSTAEAQQQQQQQQQQQQHLEQLLMDLQELLSRMENYRNLKLPRMLTFKFYLPKQATELKDLQCLEDELGPLRHVLDLTQSKSFQLEDAENFISNIRVTVVKLKGSDNTFECQFDDESATVVDFLRRWIAFCQSIISTSPQSGGGGSGGGGGPLGVRGGGGGSGGGGSELCLYDPPEVPNATFKALSYKNGTILNCECKRGFRRLKELVYMRCLGNSWSSNCQCTSNSHDKSRKQVTAQLEHQKEQQTTTDMQKPTQSMHQENLTGHCREPPPWKHEDSKRIYHFVEGQSVHYECIPGYKALQRGPAISICKMKCGKTGWTQPQLTCVDEREHHRFLASEESQGSRNSSPESETSCPITTTDFPQPTETTAMTETFVLTMEYKGCKPCICTVPEVSSVFIFPPKPKDVLTITLTPKVTCVVVDISKDDPEVQFSWFVDDVEVHTAQTQPREEQFNSTFRSVSELPIMHQDWLNGKEFKCRVNSAAFPAPIEKTISKTKGRPKAPQVYTIPPPKEQMAKDKVSLTCMITDFFPEDITVEWQWNGQPAENYKNTQPIMDTDGSYFVYSKLNVQKSNWEAGNTFTCSVLHEGLHNHHTEKSLSHSPGK
Work on B1 yielded a Bound [2] of 2310, a Bound (% input) [2] of 0.3% and a Normalized (fold (relative to Construct B)) [3] of 1.

B2: Construct CC: SEQ ID NO 813: m IL2-2x(GHHPH)-MMPcs1-2x(G4S)-mIL2Ra(1-215)-mu IgG1 Fc (protein)
chain: APTSSSTSSSTAEAQQQQQQQQQQQQHLEQLLMDLQELLSRMENYRNLKLPRMLTFKFYLPKQATELKDLQCLEDELGPLRHVLDLTQSKSFQLEDAENFISNIRVTVVKLKGSDNTFECQFDDESATVVDFLRRWIAFCQSIISTSPQGHHPHGHHPHGPLGVRGGGGGSGGGGSELCLYDPPEVPNATFKALSYKNGTILNCECKRGFRRLKELVYMRCLGNSWSSNCQCTSNSHDKSRKQVTAQLEHQKEQQTTTDMQKPTQSMHQENLTGHCREPPPWKHEDSKRIYHFVEGQSVHYECIPGYKALQRGPAISICKMKCGKTGWTQPQLTCVDEREHHRFLASEESQGSRNSSPESETSCPITTTDFPQPTETTAMTETFVLTMEYKGCKPCICTVPEVSSVFIFPPKPKDVLTITLTPKVTCVVVDISKDDPEVQFSWFVDDVEVHTAQTQPREEQFNSTFRSVSELPIMHQDWLNGKEFKCRVNSAAFPAPIEKTISKTKGRPKAPQVYTIPPPKEQMAKDKVSLTCMITDFFPEDITVEWQWNGQPAENYKNTQPIMDTDGSYFVYSKLNVQKSNWEAGNTFTCSVLHEGLHNHHTEKSLSHSPGK
In the case of B2, the EC50 ([4]; cleaved with MMP9, read-out: +MMP EC50) is reported as 0.013 nM, the EC50 ([4]; uncleaved, read-out: −MMP EC50) is reported as 0.66 nM and the EC50 ([5]; acidic pH) is reported as 10 nM. For the same molecule, the “heparin binding (qualitative)” value ([5]; pH 6 vs pH 7.5, plate assay) was “bind heparin in dose-dependent manner and with higher affinity than Construct B; also recorded: preferentially binds heparin at acidic pH”, the “drug levels in tumor relative to Construct B (40 mg/kg)” value ([6]; Construct CC 20 mg/kg, tumors 24 h after last dose) was “roughly 3 fold” and the “IL-2 levels in treated tumors compared to Construct B treated tumors” value ([6]; free IL-2 calculated by subtraction, 24 h after last dose) was “elevated”. For the same molecule, the “circulating drug levels compared with Construct B (40 mg/kg)” value [7] was “roughly similar”.

Source: patent publication US20240043489A1, “Cytokine Prodrugs Comprising a Cleavable Linker” (Trutino Biosciences Inc., priority 2020, published 2024)
